Laboratory results as given in patent US20200317776A1 (published 2020).
Substitutions are numbered along the chain they refer to.

T1: human TREM2 Fc fusion (entire TREM2 ECD; only one Fc arm fused to TREM2) (human, UniProt Q9NZC2 19-174)
T1 construct: also called huTREM2-Fc; recombinant hTREM2
T1 sequence: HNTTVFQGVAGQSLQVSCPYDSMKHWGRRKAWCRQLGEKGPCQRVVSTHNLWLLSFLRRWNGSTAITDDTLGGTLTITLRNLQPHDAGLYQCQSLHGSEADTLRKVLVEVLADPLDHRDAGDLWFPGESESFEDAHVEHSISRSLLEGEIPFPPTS

T2: human TREM2 expressed on cells (human, UniProt Q9NZC2 19-230)
T2 construct: BW5147.G.1.4 cells stably expressing human TREM2 together with Dap12, or endogenous TREM2 of primary human myeloid cells; also called huT2 BW; hTREM2 expressing cell line
T2 sequence: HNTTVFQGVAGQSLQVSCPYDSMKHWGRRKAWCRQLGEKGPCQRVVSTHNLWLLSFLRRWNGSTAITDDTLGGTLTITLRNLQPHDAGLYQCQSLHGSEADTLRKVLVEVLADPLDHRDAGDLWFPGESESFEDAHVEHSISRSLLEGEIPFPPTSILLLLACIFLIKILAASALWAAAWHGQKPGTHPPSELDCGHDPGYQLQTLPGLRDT

T3: cynomolgus monkey TREM2 Fc fusion (entire TREM2 ECD; only one Fc arm fused to TREM2) (cynomolgus monkey, UniProt Q9NZC2 19-174 (human entry))
T3 construct: also called cyno TREM2-Fc
T3 chain: T1 sequence with A10E, W60R, L89F, F125V

B1: AL2p-8 (antibody, V domains shown)
VH: QVQLVQSGAEVKKPGSSVKVSCKASGYAFSLSWMNWVRQAPGQGLEWMGRIYPGDGDTNYARKFQGRVTITADESTSTAYMELSSLRSEDTAVYYCARLLRNQPGSSYAMDYWGQGTLVTVSS
VL: GVVMTQTPLSLSVTPGQPASISCRSSQSLIHSNGYTYLHWYLQKPGQSPQLLIYKVSNRRSGVPDRFSGSGSGTDFTLKISRVEAEDVGVYYCSQSTRVPYTFGQGTKLEIK
notes: Fab and IgG formats under one id
B2: AL2p-15 (antibody, V domains shown)
VH: B1 VH with L31S, S32H, R62Q, S106E
VL: B1 VL with Q27S, I30V, R60K
notes: as for B1
B3: AL2p-16 (antibody, V domains shown)
VH: B1 VH with L31S, S32H, R62Q, Q65R, S106A
VL: B1 VL with S25T, I30V, R60V
notes: as for B1
B4: AL2p-35 (antibody, V domains shown)
VH: B1 VH with S16A, S30W, L31S, G44R, M48I, R62Q, E74T, T76A, S106E, M110H
VL: DVVMTQSPDSLAVSLGERATINCRSSQSLVHSNGYTYLHWYQQKPGQSPKLLIYKVSNRFSGVPDRFSGSGSGTDFTLTISSLQAEDVAVYYCSQSTRVPYTFGGGTKVEIK
notes: as for B1
B5: AL2p-9 (antibody, V domains shown)
VH: B1 VH with L31R, R62Q, S106A
VL: B1 VL with S25T, I30V, R60V
notes: as for B1
B6: AL2p-36 (antibody, V domains shown)
VH: B1 VH with S16A, L31S, G44R, M48I, E74T, T76A, S106A
VL: B4 VL
notes: as for B1
B7: AL2p-23 (antibody, V domains shown)
VH: B1 VH with L31S, S32H, D57Q, R62Q, F64R, S106E
VL: B1 VL with S25T, I30V, R60V
notes: as for B1
B8: AL2p-29 (antibody, V domains shown)
VH: B1 VH with L31S, S32Q, R62Q, S106E
VL: B1 VL with Q27R, I30V, R60F
notes: as for B1
B9: AL2p-26 (antibody, V domains shown)
VH: B1 VH with L31S, S32H, D55G, R62Q, F64R, S106E
VL: B1 VL
notes: as for B1
B10: AL2p-47 huIgG1 (antibody, V domains shown)
VH: B1 VH with L31S, S32D, D55E, Q65H, Q103K, S106E
VL: DVVMTQTPLSLSVTPGQPASISCRTSQSLVHSNAYTYLHWYLQKPGQSPQLLIYKVSNRVSGVPDRFSGSGSGTDFTLKISRVEAEDVGVYYCSQSTRVPYTFGQGTKLEIKR
B11: AL2p-61 huIgG1 (antibody, V domains shown)
VH: B1 VH with L31S, S32Q, D55E, S106E
VL: B10 VL with D1G, T25S, A34Q, V60R

target: T1, human TREM2 Fc fusion (entire TREM2 …); assay: BLI, IgG, avid
Procedure: Briefly, IgGs were loaded on-line onto AHQ sensors, Sensors were equilibrated off-line in assay buffer for 30 minutes and then monitored on-line for 60 seconds for baseline establishment. For avid binding measurement, sensors with loaded IgGs were exposed to 100 nM antigen (human or cynomolgus monkey TREM2 Fe fusion using the entire TREM2 ECD; only one Fc arm was fused to TREM2) for 3 minutes, afterwards they were transferred to assay buffer for 3 minutes for off-rate measurement. Monovalent binding measurements were obtained by loading human TREM2 Fc fusion antigens to AHQ sensor and followed by exposure to 100 nM TREM2 antibody Fab. Kinetics data were fit using a 1:1 binding model in the data analysis software provided by ForteBio. Assay was run at room temperature (25° C.).

| Binder | Kd |
| --- | --- |
| B1 | 0.3 nM |
| B2 | 0.538 nM |
| B3 | 0.222 nM |
| B4 | 1.85 nM |
| B5 | 0.349 nM |
| B6 | 0.495 nM |
| B7 | 0.334 nM |
| B8 | 0.403 nM |
| B9 | 0.201 nM |

target: T2, human TREM2 expressed on cells; assay: FACS, human DCs
Excerpt: To examine cell binding of affinity matured anti-TREM2 antibodies, both primary human monocyte derived dendritic cells and recombinant, human TREM2 expressing cells were utilized. For the latter, BW5147.G.1.4 (ATCC® TIB48™) and HEK293T cells stably expressing human TREM2 together with Dap12 using viral infection were established. For primary human monocyte derived dendritic cells, human monocytes were isolated from whole blood using RosetteSep Human monocyte enrichment cocktail (Stemcell technologies) and Ficoll centrifugation per manufacturer protocols. After lysing red blood cells with ACK lysing buffer, monocytes were resuspended in complete media (RPMI, 10% FBS, Pen/Strep, L-glutamine, HEPES, non-essential amino acid, Sodium pyruvate) with 100 ng/ml human GM-CSF (hu-GMCSF) and, human IL-4 (hu-IL-4) to differentiate dendritic cells for 6 days.
Cells were harvested by trypsinization (Hek293T) or scraping (BW and dendritic cells), washed in PBS, counted and plated on 96-well U bottom plates at […] cells/well. The plates were spun at 1,400 rpm for 3 minutes and primary TREM2 or control antibodies were added in FACS buffer (PBS+2% FBS) and incubated on ice for one hour. Cells were subsequently centrifuged as before and washed thrice with FACS buffer. Cells were then incubated with anti-human PE conjugated secondary antibody (BD Biosciences) in FACS buffer for 30 minutes on ice. Cells were again washed thrice with FACS buffer and analyzed on a BD FACS Canto or an Intellicyt Flow Cytometer. Binding was measured as mean fluorescence intensity in the APC channel.

| Binder | MFI |
| --- | --- |
| B1 | 310 MFI |
| B2 | 262 MFI |
| B3 | 327 MFI |
| B4 | 130 MFI |
| B5 | 322 MFI |
| B6 | 240 MFI |
| B9 | 296 MFI |

target: T1, human TREM2 Fc fusion (entire TREM2 …); assay: BLI, Fab, monovalent

| Binder | Kd |
| --- | --- |
| B1 | 4.01 nM |
| B2 | 8.85 nM |
| B3 | 1.83 nM |
| B4 | 28.4 nM |
| B5 | 6.44 nM |
| B6 | 12.1 nM |
| B7 | 4.35 nM |
| B8 | 6.38 nM |
| B9 | 3.15 nM |

Target: T3, cynomolgus monkey TREM2 Fc fusion …
Assay: BLI, Fab, monovalent

| Binder | Kd |
| --- | --- |
| B1 | 3.1 nM |
| B2 | 8.76 nM |
| B3 | 1.36 nM |
| B4 | 24.6 nM |
| B5 | 5.63 nM |
| B6 | 7.38 nM |
| B7 | 4.16 nM |
| B8 | 6.47 nM |
| B9 | 2.69 nM |

target: T2, human TREM2 expressed on cells; assay: FACS, hTREM2 BW cells
How it was run: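 Cells were BW5147.G.1.4 stably expressing human TREM2 with Dap12, or human monocyte-derived dendritic cells differentiated 6 days with GM-CSF and IL-4. Antibodies bound 1 h on ice in PBS+2% FBS, then PE anti-human secondary 30 min on ice; flow cytometry read-out as mean fluorescence intensity.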

| Binder | Kd |
| --- | --- |
| B1 | 1.2 nM |
| B2 | 2.2 nM |
| B3 | 1.2 nM |
| B4 | 3.6 nM |
| B5 | 1.1 nM |
| B6 | 1.7 nM |
| B7 | 1.2 nM |
| B8 | 1.3 nM |
| B9 | 1.1 nM |

target: T2, human TREM2 expressed on cells; assay: FACS, hTREM2 BW cells; remark: another data set of the same source

| Binder | Bmax (MFI) | Kd |
| --- | --- | --- |
| B10 | 226000 MFI | 1.2 nM |
| B11 | 211000 MFI | 0.42 nM |

target: T2, human TREM2 expressed on cells; assay: cell-based or functional assay

| Binder | Survival huDCs plate bound IgG, AUC |
| --- | --- |
| B1 | 1.09e+06 AUC |
| B2 | 488000 AUC |
| B3 | 880000 AUC |
| B4 | 453000 AUC |
| B5 | 976000 AUC |
| B6 | 1.14e+06 AUC |
| B7 | 1.11e+06 AUC |
| B8 | 1.11e+06 AUC |
| B9 | 1.11e+06 AUC |

target: T4, human TREM2/DAP12 fusion protein (human, UniProt O43914 41-113, limits assumed); assay: cell-based or functional assay
T4 sequence (O43914 other isoform, or with tags, fused parts or gaps limits assumed): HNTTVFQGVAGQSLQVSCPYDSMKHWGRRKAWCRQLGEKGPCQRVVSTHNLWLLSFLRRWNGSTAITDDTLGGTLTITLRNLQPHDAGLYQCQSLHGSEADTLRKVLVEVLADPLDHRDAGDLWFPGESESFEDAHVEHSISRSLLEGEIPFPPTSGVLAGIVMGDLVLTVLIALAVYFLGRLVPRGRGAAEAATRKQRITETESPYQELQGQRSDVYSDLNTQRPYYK

| Binder | Luciferase activation soluble 10 nM IgG, FOC | Luciferase activation plate bound 33 nM IgG, FOC |
| --- | --- | --- |
| B1 | 2.78 FOC |  |
| B2 | 1.8 FOC | 7.54 FOC |
| B3 | 2.6 FOC | 16.9 FOC |
| B4 | 2.05 FOC | 5.15 FOC |
| B5 | 2.62 FOC | 15.2 FOC |
| B6 | 2.64 FOC | 22.7 FOC |
| B7 | 2.53 FOC | 29.8 FOC |
| B8 | 2.17 FOC | 26.6 FOC |
| B9 | 2.59 FOC | 25.9 FOC |

target: T4, human TREM2/DAP12 fusion protein; assay: cell-based or functional assay; remark: another data set of the same source

| Binder | Plate bound IgG, fold over unstimulated control (25 nM IgG) | Soluble IgG, EC50 | Soluble IgG, fold over control IgG (17 nM IgG) |
| --- | --- | --- | --- |
| B10 | 3.94 fold | 6.5 nM | 8.77 fold |
| B11 | 8.97 fold | 5.24 nM | 10.8 fold |

target: T2, human TREM2 expressed on cells; assay: cell-based or functional assay; remark: another data set of the same source

| Binder | EC50 viability, dendritic cells D558 | EC50 viability, dendritic cells D559 | EC50 viability, dendritic cells D560 | EC50 viability, macrophages D558 | EC50 viability, macrophages D559 | EC50 viability, macrophages D560 |
| --- | --- | --- | --- | --- | --- | --- |
| B10 | 1.02 nM | 1.13 nM | 0.672 nM | 0.013 nM | 1.56 nM | 1.25 nM |
